Data set [1] has as its target His-tagged Trichoplax adhaerens OGA pHAT domain (TapHAT) (Trichoplax adhaerens). Kind of data set: SEC; analytical; Superdex 200 Increase 10/300 GL; 500 μL of His-tagged pHAT at 1 mg/mL; 25 mM Tris pH 7.5, 150 mM NaCl, 0.5 mM TCEP; LMW calibration standards. On the technique in general: In gel filtration, larger molecules generally elute earlier.
The next data set deals with T1, OgHAT (OgAT) (Oceanicola granulosus, UniProt Q2CEE2).
T1 construct: gene OG2516_04134; amine-biotinylated, captured on streptavidin CM5 chip; not known to form dimers
T1 sequence (Q2CEE2 whole entry): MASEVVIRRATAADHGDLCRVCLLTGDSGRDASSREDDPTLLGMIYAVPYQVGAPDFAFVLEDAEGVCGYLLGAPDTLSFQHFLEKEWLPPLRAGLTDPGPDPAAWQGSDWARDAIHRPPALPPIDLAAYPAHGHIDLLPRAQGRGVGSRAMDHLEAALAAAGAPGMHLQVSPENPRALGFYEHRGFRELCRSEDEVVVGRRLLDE
In words: SPR (Biacore […]), […] equilibrium-binding fit. (In general: SPR reads the build-up and loss of mass on a sensor chip optically.)

Data set [2] concerns the molecule itself. In words: cryo-EM structure; 0.5 mg/mL hOGA or TaOGA vitrified at 4 °C; Titan Krios 300 kV; CryoSPARC.
Data set [3] concerns the molecule itself. In words: SEC; analytical; Superdex 200 Increase 10/300 GL; 500 μL of His-tagged pHAT at 1 mg/mL; 25 mM Tris pH 7.5, 150 mM NaCl, 0.5 mM TCEP; LMW calibration standards.

By stoichiometry N is commonly meant a count of units in the complex or per binding partner. Take “His-tagged Trichoplax adhaerens OGA pHAT domain (TapHAT) (domain or fragment)”: the stoichiometry N in data set [1] amounted to 2. One may read the Kd as a measure of binding affinity in units of concentration. With `CC(=O)SCCNC(=O)CCNC(=O)[C@H](O)C(C)(C)COP(=O)(O)OP(=O)(O)OC[C@H]1O[C@@H](n2cnc3c(N)ncnc32)[C@H](O)[C@@H]1OP(=O)(O)O` [acetyl-CoA], the affinity at OgHAT (OgAT), expressed as Kd, was 5 mM.

B1: Trichoplax adhaerens O-GlcNAcase (TaOGA), residues 5-723 (enzyme, UniProt A0A0D5X2Y8 5-723, looked up)
chain: KFLSGVVEGFYGKPWSFEQRKTLFSNMAKWGLNTYMYGPKDDEKHRAAWKQAYSKREGDSLRALIRAAEESGILFIYAISPGVDITYSSNRDMKFLKDKLDQIRNFGCNSFAIFFDDIDTVMCLQDQEEFESFAAAQVEVTNEIYKYLGMPANFLFCPTEYCAARADPNVKESKYLVTVGTGLHSDIHIMWTGPKVVSNKISVESILELQTVLRRKPVIWDNIHANDYEQGRLNLGPYDCRPAELMESLNGIFTNPNCEFELNYVPIRTFSLWCQSKRTRFNYDVEKALEQSIREWTEEFCIPRLPDGYLLEADTSDTNVNEYMDDEMQSDSRPISPANSMETDKDELTVKDIRLLVELFYLPQKHGKTANDLLAQAKWLKSNFRIAALSRKPNDTSEGSNLDEHNTDYIAAKEWDKRFSKFRSICQIIHQFGDRLMTCRNRVLLYEVYNYVADLCGILYHLISRIHSLANPEKLEKRSDSEQSSFRYGGFVGDIHRLIVSTDEYEESTLKNSDAYVIRPFMPSDEETLYDLCLKSCIENSNGDEIYKREPRIIGDRDLGAYIYLHPEYIYVLEDDRDKICGYLCGALDSKQFYERYESEWLTQIRDRHPQPENDIASWTPEEIVANSFYNFTPPTDVSVLYLSHLEARFDSSVPEKVIKRIIRFILEQLKAKGSYGASMLIDSWRTNLRRIFTSMGFVDLQEYSWMSEQKCMIAIKLM
notes: TaOGA (TaOGA54), Trichoplax adhaerens, residues 5-723; the results call it full-length; also called TaOGA54; full-length TaOGA; source: E. coli BL21(DE3) pLysS, purified (Ni-NTA, PreScission cleavage, Superdex 200); not shown: His6, N-terminal, cleaved
For the molecule B1, the binding result in data set [2] is “binds”.

B2: His-tagged human OGA pHAT domain (hpHAT) (domain or fragment, UniProt O60502 710-916, looked up)
chain: PTSKVYTIRPYFPKDEASVYKICREMYDDGVGLPFQSQPDLIGDKLVGGLLSLSLDYCFVLEDEDGICGYALGTVDVTPFIKKCKISWIPFMQEKYTKPNGDKELSEAEKIMLSFHEEQEVLPETFLANFPSLIKMDIHKKVTDPSVAKSMMACLLSSLKANGSRGAFCEVRPDDKRILEFYSKLGCFEIAKMEGFPKDVVILGRSL
notes: pHAT domain of human O-GlcNAcase (OGA), residues 710-916; non-cleavable 6xHis-tag; also called human pHAT; isolated human pHAT domain; source: E. coli BL21(DE3) pLysS, purified (NiNTA, Superdex 75)
In the case of B2, the “stoichiometry N” value in data set [3] is 2.

The values above are taken from PMC12494797, “Multi-domain O-GlcNAcase structures reveal allosteric regulatory mechanisms” (Nature Communications, 2025).
